According to paper PMC3983035, “The RNA-Binding Protein QKI Suppresses Cancer-Associated Aberrant Splicing”:

Assays:
QKI-5 (His-tagged) = target: T1, QKI-5 (His-tagged) (UniProt Q96PU8 1-341); experiment: EMSA; 0-2080 nM QKI-5; EMSA: 10 ng 32P-RNA, standard splicing conditions, 30 C, 20 min, then tRNA 5 min; 5% native PAGE; buffer, salt and pH not given; conditions: protein: recombinant; tags: His-tag (pET-28a); reverse primer also encodes C-terminal FLAG; chain copies: 2; label: 32P
T1 sequence: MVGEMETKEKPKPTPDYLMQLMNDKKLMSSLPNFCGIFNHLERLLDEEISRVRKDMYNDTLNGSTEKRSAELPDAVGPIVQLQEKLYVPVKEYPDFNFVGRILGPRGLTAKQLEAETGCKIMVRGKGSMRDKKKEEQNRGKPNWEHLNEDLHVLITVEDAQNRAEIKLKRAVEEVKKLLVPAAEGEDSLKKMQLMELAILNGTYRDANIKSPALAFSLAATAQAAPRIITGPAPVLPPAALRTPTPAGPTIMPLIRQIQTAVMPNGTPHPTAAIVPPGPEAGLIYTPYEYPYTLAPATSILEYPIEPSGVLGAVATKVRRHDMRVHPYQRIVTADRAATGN

SF1 (aa 1-361) = target: T2, SF1 (aa 1-361) (UniProt Q15637 1-361); experiment: EMSA; 5-10x molar excess; EMSA: 10 ng 32P-RNA, standard splicing conditions, 30 C, 20 min, then tRNA 5 min; 5% native PAGE; buffer, salt and pH not given; conditions: protein: recombinant; tags: N-terminal GST (pGEX-5X-2); label: 32P
T2 sequence: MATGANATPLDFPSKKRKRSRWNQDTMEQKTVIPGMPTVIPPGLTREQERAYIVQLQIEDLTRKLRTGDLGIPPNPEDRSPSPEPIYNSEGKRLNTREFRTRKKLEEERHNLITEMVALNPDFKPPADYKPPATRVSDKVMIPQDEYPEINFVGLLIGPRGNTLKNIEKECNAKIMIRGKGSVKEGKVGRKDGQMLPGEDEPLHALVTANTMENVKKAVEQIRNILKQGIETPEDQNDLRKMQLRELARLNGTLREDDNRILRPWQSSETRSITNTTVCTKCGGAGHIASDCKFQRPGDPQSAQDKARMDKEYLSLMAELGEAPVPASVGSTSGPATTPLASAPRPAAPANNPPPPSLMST

B1: NUMB mut2 RNA (ssRNA)
RNA: GGGCACUUGUACACCCUGCAUGAAUUGACUCCAUUGAUGUUGUCUGCUCCCGUUGUAGCGAGUGGCACUGACUCAGCCUUCCAU
B1: no binding (QKI-5 (His-tagged)).

B2: NUMB mut1 RNA (ssRNA)
RNA: GGGCACUUGUACACCCUGCAUGAAUUAACUCCAUUGAUGUUGUCUGCUCCCGUUGUAGCGAGUGGCACUGACUCAGCCUUCCAU
B2: binds (SF1 (aa 1-361)).
